Changes are numbered by the printed parent chain. Names may count otherwise.
B1: V316L (protein)
chain: MQLRNPELHLGCALALRFLALVSWDIPGARALDNGLARTPTMGWLHWERFMCNLDCQEEPDSCISEKLFMEMAELMVSEGWKDAGYEYLCIDDCWMAPQRDSEGRLQADPQRFPHGIRQLANYVHSKGLKLGIYADVGNKTCAGFPGSFGYYDIDAQTFADWGVDLLKFDGCYCDSLENLADGYKHMSLALNRTGRSIVYSCEWPLYMWPFQKPNYTEIRQYCNHWRNFADIDDSWKSIKSILDWTSFNQERIVDVAGPGGWNDPDMLVIGNFGLSWNQQVTQMALWAIMAAPLFMSNDLRHISPQAKALLQDKDLIAINQDPLGKQGYQLRQGDNFEVWERPLSGLAWAVAMINRQEIGGPRSYTIAVASLGKGVACNPACFITQLLPVKRKLGFYEWTSRLRSHINPTGTVLLQLENTMQMSLKDLL
B2: A318T (protein)
chain: B1 chain with L316V, A318T
B3: K326E (protein)
chain: B1 chain with L316V, K326E
B4: N320S (protein)
chain: B1 chain with L316V, N320S
B5: G325C (protein)
chain: B1 chain with L316V, G325C
B6: Q321K (protein)
chain: B1 chain with L316V, Q321K
B7: D322V (protein)
chain: B1 chain with L316V, D322V
B8: D322A (protein)
chain: B1 chain with L316V, D322A
B9: L324W (protein)
chain: B1 chain with L316V, L324W
B10: I317V (protein)
chain: B1 chain with L316V, I317V
B11: L324V (protein)
chain: B1 chain with L316V, L324V
B12: A318P (protein)
chain: B1 chain with L316V, A318P
B13: N320T (protein)
chain: B1 chain with L316V, N320T
B14: I319M (protein)
chain: B1 chain with L316V, I319M
B15: K326M (protein)
chain: B1 chain with L316V, K326M
B16: I317M (protein)
chain: B1 chain with L316V, I317M
B17: G325A (protein)
chain: B1 chain with L316V, G325A
B18: A318V (protein)
chain: B1 chain with L316V, A318V
B19: G325V (protein)
chain: B1 chain with L316V, G325V
B20: I317L (protein)
chain: B1 chain with L316V, I317L
B21: A318D (protein)
chain: B1 chain with L316V, A318D

System: mutant form of α-Gal A expressed in HEK-293 cells
Assay: HEK assay (GLP HEK / Migalastat Amenability Assay): α-Gal A activity in lysates of transiently transfected HEK-293 cells incubated with or without 10 μM migalastat
Format: cell-based, human
Conditions: for Absolute increase (% WT) / Relative increase: 10 μM migalastat versus baseline; for Baseline α-Gal A activity (% WT): absence of migalastat; for Baseline α-Gal A activity (% WT) / 10 μM migalastat α-Gal A activity (% WT): percentage of baseline wild-type α-Gal A activity; for Baseline α-Gal A activity (% WT) / Baseline α-Gal A activity / 10 μM migalastat α-Gal A activity / 10 μM migalastat α-Gal A activity (% WT): mean ± SEM; for Baseline α-Gal A activity / 10 μM migalastat α-Gal A activity: lysates of HEK-293 cells transiently transfected with the mutant form; for Baseline α-Gal A activity: incubated 5 days in absence of migalastat; for 10 μM migalastat α-Gal A activity: incubated 5 days with 10 μM migalastat; for 10 μM migalastat α-Gal A activity (% WT): with 10 μM migalastat, 5 days
How it was run: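 HEK-293 cells transiently transfected with mutant α-Gal A and incubated with or without 10 μM migalastat; lysate activity given as nmol free 4-MU released per mg protein per hour. Values are mean±SEM.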

| Molecule | Absolute increase (% WT) | Relative increase | Baseline α-Gal A activity (% WT) | Baseline α-Gal A activity | 10 μM migalastat α-Gal A activity | 10 μM migalastat α-Gal A activity (% WT) |
| --- | --- | --- | --- | --- | --- | --- |
| B1 | 33.9 % WT | 1.7 | 47.4 ± 3.9 % WT | 12854 ± 958 nmol/mg/h | 21812 ± 1450 nmol/mg/h | 81.3 ± 6.3 % WT |
| B2 | 17.7 % WT | 1.3 | 45.2 ± 2.8 % WT | 16954 ± 1483 nmol/mg/h | 22296 ± 1232 nmol/mg/h | 62.9 ± 4.6 % WT |
| B3 | 25.3 % WT | 1.4 | 55.6 ± 2.6 % WT | 15541 ± 832 nmol/mg/h | 22340 ± 828 nmol/mg/h | 80.9 ± 3.9 % WT |
| B4 | 23.9 % WT | 1.3 | 82.9 ± 4.5 % WT | 21562 ± 1285 nmol/mg/h | 28097 ± 1522 nmol/mg/h | 106.7 ± 3.9 % WT |
| B5 | 34.5 % WT | 1.7 | 51.4 ± 1.7 % WT | 14482 ± 695 nmol/mg/h | 23873 ± 1021 nmol/mg/h | 85.9 ± 4 % WT |
| B6 | 32.0 % WT | 2.1 | 29.2 ± 2 % WT | 7590 ± 520 nmol/mg/h | 16046 ± 870 nmol/mg/h | 61.2 ± 2.4 % WT |
| B7 | 11.7 % WT | 5.6 | 2.6 ± 0.2 % WT | 714 ± 53 nmol/mg/h | 3989 ± 217 nmol/mg/h | 14.3 ± 0.6 % WT |
| B8 | 15.3 % WT | 3.2 | 6.8 ± 0.4 % WT | 1908 ± 139 nmol/mg/h | 6170 ± 310 nmol/mg/h | 22.2 ± 1 % WT |
| B9 | 19.8 % WT | 1.3 | 73.5 ± 1.8 % WT | 20623 ± 721 nmol/mg/h | 25772 ± 1045 nmol/mg/h | 93.3 ± 4.5 % WT |
| B10 | 18.6 % WT | 1.3 | 55 ± 6.1 % WT | 14885 ± 1495 nmol/mg/h | 19927 ± 1565 nmol/mg/h | 73.6 ± 5.5 % WT |
| B11 | 13.0 % WT | 1.2 | 57.2 ± 2.1 % WT | 17027 ± 1167 nmol/mg/h | 20866 ± 1331 nmol/mg/h | 70.2 ± 2 % WT |
| B12 | 6.5 % WT | 5.3 | 1.5 ± 0.2 % WT | 526 ± 42 nmol/mg/h | 2799 ± 174 nmol/mg/h | 8 ± 0.8 % WT |
| B13 | 21.8 % WT | 2.0 | 21.6 ± 1.5 % WT | 5597 ± 442 nmol/mg/h | 11276 ± 658 nmol/mg/h | 43.3 ± 1.9 % WT |
| B14 | 9.4 % WT | 1.2 | 47.4 ± 2.2 % WT | 12191 ± 433 nmol/mg/h | 14802 ± 727 nmol/mg/h | 56.8 ± 2.3 % WT |
| B15 | 63.2 % WT | 3.7 | 24.4 ± 1.6 % WT | 8482 ± 500 nmol/mg/h | 31204 ± 1979 nmol/mg/h | 87.6 ± 3.5 % WT |
| B16 | 10.2 % WT | 11.7 | 1 ± 0.1 % WT | 340 ± 29 nmol/mg/h | 3988 ± 177 nmol/mg/h | 11.2 ± 0.8 % WT |
| B17 | 34.4 % WT | 1.5 | 64.9 ± 3.8 % WT | 18183 ± 1254 nmol/mg/h | 27523 ± 1456 nmol/mg/h | 99.2 ± 5.4 % WT |
| B18 | 16.5 % WT | 1.4 | 37.9 ± 2.1 % WT | 14603 ± 1377 nmol/mg/h | 19658 ± 1108 nmol/mg/h | 54.4 ± 3.5 % WT |
| B19 | 17.1 % WT | 9.3 | 2.2 ± 0.2 % WT | 572 ± 30 nmol/mg/h | 5333 ± 294 nmol/mg/h | 19.3 ± 1.1 % WT |
| B20 | 16.5 % WT | 1.3 | 54.4 ± 4.9 % WT | 14780 ± 1222 nmol/mg/h | 18770 ± 1141 nmol/mg/h | 70.9 ± 5.6 % WT |
| B21 | 16.9 % WT | 1.4 | 42.5 ± 3.6 % WT | 15357 ± 1499 nmol/mg/h | 20838 ± 1817 nmol/mg/h | 59.4 ± 5.3 % WT |
